# Measured values from patent US20240209409A1 (AJINOMOTO, published 2024).
# Where no end group is shown, it is not given here. [ ]: non-standard residue; d: D form. Phe(4-N3) = [N-]=[N+]=Nc1ccc(C[C@H](N)C(=O)O)cc1
# T1: EPOR (UniProt P19235 25-508, limits assumed)
# T1 sequence (looked up): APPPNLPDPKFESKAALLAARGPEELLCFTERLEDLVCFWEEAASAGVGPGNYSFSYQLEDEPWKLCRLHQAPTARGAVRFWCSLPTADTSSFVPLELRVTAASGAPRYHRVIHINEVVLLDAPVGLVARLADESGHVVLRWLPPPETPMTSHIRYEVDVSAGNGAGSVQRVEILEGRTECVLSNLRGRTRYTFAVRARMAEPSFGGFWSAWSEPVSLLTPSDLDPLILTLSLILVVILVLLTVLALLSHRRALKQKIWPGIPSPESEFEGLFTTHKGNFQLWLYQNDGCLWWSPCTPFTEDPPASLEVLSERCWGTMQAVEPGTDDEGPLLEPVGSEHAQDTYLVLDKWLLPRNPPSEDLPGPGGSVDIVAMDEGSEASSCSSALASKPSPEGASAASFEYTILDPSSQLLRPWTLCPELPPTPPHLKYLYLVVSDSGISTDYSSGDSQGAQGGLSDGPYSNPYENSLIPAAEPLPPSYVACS
# B1: L1-AzF-aMD4dY-PA22 (peptide)
# chain: AETCRQFNRRTHEVWNLDCGAAPAAPAPAAPA[Phe(4-N3)]APAPAAPAAPGCRQFNRRTHEVWNLDC
# modifications: cysteine pairing not given here
# B2: L1-AzF-EPO-PA22 PEG-modified using m-dPEG24-DBCO (peptide)
# chain: AETGGLYACHMGPMTWVCQPLRGAAPAAPAPAAPA[Phe(4-N3)](m‑dPEG24‑DBCO)APAPAAPAAPGGLYACHMGPMTWVCQPLRG
# B3: L2-AzF-EPO-PA22 PEG-modified using m-dPEG24-DBCO (peptide)
# chain: AETGGLYACHMGPMTWVCQPLRGAAPAAPAPAA[Phe(4-N3)](m‑dPEG24‑DBCO)AAPAPAAPAAPGGLYACHMGPMTWVCQPLRG
# B4: N-AzF-EPO-PA22 (peptide)
# chain: AET[Phe(4-N3)]GGLYACHMGPMTWVCQPLRGAAPAAPAPAAPAAPAPAAPAAPGGLYACHMGPMTWVCQPLRG
# B5: L2-AzF-EPO-PA22 (peptide)
# chain: AETGGLYACHMGPMTWVCQPLRGAAPAAPAPAA[Phe(4-N3)]AAPAPAAPAAPGGLYACHMGPMTWVCQPLRG
# B6: L1-AzF-aMD4dY-PA22 PEG-modified using m-dPEG24-DBCO (peptide)
# chain: AETCRQFNRRTHEVWNLDCGAAPAAPAPAAPA[Phe(4-N3)](m‑dPEG24‑DBCO)APAPAAPAAPGCRQFNRRTHEVWNLDC
# modifications: cysteine pairing not given here
# B7: N-AzF-aMD4dY-PA22 (peptide)
# chain: AET[Phe(4-N3)]CRQFNRRTHEVWNLDCGAAPAAPAPAAPAAPAPAAPAAPGCRQFNRRTHEVWNLDC
# modifications: cysteine pairing not given here
# B8: L2-AzF-aMD4dY-PA22 PEG-modified using m-dPEG24-DBCO (peptide)
# chain: AETCRQFNRRTHEVWNLDCGAAPAAPAPAA[Phe(4-N3)](m‑dPEG24‑DBCO)AAPAPAAPAAPGCRQFNRRTHEVWNLDC
# modifications: cysteine pairing not given here
# B9: L2-AzF-aMD4dY-PA22 (peptide)
# chain: AETCRQFNRRTHEVWNLDCGAAPAAPAPAA[Phe(4-N3)]AAPAPAAPAAPGCRQFNRRTHEVWNLDC
# modifications: cysteine pairing not given here
# B10: N-AzF-aMD4dY-PA22 PEG-modified using m-dPEG24-DBCO (peptide)
# chain: AET[Phe(4-N3)](m‑dPEG24‑DBCO)CRQFNRRTHEVWNLDCGAAPAAPAPAAPAAPAPAAPAAPGCRQFNRRTHEVWNLDC
# modifications: cysteine pairing not given here
# B11: L1-AzF-EPO-PA22 (peptide)
# chain: AETGGLYACHMGPMTWVCQPLRGAAPAAPAPAAPA[Phe(4-N3)]APAPAAPAAPGGLYACHMGPMTWVCQPLRG
# B12: N-AzF-EPO-PA22 PEG-modified using m-dPEG24-DBCO (peptide)
# chain: AET[Phe(4-N3)](m‑dPEG24‑DBCO)GGLYACHMGPMTWVCQPLRGAAPAAPAPAAPAAPAPAAPAAPGGLYACHMGPMTWVCQPLRG
# B13: WT-EPO-PA22 (peptide)
# chain: AETGGLYACHMGPMTWVCQPLRGAAPAAPAPAAPAAPAPAAPAAPGGLYACHMGPMTWVCQPLRG
# B14: WT-aMD4dY-PA22 (peptide)
# chain: AETCRQFNRRTHEVWNLDCGAAPAAPAPAAPAAPAPAAPAAPGCRQFNRRTHEVWNLDC
# What was measured:
# [1] = target: Met (UniProt P08581 25-1390, limits assumed); assay: cell-based or functional assay
# Sequence of Met (P08581 25-1390 limits assumed): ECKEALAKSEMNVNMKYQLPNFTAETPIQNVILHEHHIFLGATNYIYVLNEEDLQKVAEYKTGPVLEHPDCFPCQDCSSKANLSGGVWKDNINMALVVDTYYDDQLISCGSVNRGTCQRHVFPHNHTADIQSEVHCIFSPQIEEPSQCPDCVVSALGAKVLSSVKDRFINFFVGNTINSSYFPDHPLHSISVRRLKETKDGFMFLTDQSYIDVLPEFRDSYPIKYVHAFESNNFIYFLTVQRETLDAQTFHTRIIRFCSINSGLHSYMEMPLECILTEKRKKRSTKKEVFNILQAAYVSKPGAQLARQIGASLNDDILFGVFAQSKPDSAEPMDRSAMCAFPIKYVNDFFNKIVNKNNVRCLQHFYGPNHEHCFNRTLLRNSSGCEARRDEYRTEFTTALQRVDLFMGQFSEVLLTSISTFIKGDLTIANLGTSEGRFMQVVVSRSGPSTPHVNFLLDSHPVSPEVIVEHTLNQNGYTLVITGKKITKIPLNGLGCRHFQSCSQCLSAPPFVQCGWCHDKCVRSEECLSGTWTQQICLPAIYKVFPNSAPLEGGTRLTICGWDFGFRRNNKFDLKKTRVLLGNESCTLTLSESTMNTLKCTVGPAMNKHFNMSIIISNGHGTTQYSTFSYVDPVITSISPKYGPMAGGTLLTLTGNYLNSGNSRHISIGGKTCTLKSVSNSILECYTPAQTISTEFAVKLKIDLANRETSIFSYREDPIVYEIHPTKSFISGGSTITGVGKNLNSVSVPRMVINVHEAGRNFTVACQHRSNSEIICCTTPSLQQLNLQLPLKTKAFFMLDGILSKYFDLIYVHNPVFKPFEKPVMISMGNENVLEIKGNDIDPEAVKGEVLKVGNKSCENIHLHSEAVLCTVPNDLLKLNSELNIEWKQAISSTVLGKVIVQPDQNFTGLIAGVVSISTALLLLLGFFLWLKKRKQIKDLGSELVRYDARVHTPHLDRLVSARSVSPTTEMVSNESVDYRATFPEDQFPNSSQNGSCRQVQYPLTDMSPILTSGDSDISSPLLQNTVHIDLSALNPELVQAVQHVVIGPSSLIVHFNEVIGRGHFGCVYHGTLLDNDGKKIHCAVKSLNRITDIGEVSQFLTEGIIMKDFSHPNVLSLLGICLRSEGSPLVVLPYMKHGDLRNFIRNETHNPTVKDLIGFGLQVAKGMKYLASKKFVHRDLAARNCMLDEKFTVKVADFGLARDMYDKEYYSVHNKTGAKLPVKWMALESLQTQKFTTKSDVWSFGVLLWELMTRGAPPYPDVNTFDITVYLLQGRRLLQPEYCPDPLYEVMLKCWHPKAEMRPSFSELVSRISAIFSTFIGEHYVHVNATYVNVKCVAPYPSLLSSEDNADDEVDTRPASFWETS
# [2] = target: T1, EPOR; assay: cell-based or functional assay
binder,measurement,setting,value
B1,"reporter activity (SRE reporter, firefly/Renilla luciferase, HEK293 cells, relative to Mock); PEG- sample, 2500-fold diluted",[1],> 10 times that of Mock
B2,"reporter activity (PathHunter eXpress EpoR-JAK2 Functional Assay, chemiluminescence relative to Mock); PEG+ sample, 1000-fold diluted",[2],> 1.5 times that of Mock
B3,"reporter activity (PathHunter eXpress EpoR-JAK2 Functional Assay, chemiluminescence relative to Mock); PEG+ sample, 1000-fold diluted",[2],> 1.5 times that of Mock
B4,"reporter activity (PathHunter eXpress EpoR-JAK2 Functional Assay, chemiluminescence relative to Mock); PEG- sample, 1000-fold diluted",[2],> 1.5 times that of Mock
B5,"reporter activity (PathHunter eXpress EpoR-JAK2 Functional Assay, chemiluminescence relative to Mock); PEG- sample, 1000-fold diluted",[2],> 1.5 times that of Mock
B6,"reporter activity (SRE reporter, firefly/Renilla luciferase, HEK293 cells, relative to Mock); PEG+ sample, 2500-fold diluted",[1],> 10 times that of Mock
B7,"reporter activity (SRE reporter, firefly/Renilla luciferase, HEK293 cells, relative to Mock); PEG- sample, 2500-fold diluted",[1],> 10 times that of Mock
B8,"reporter activity (SRE reporter, firefly/Renilla luciferase, HEK293 cells, relative to Mock); PEG+ sample, 2500-fold diluted",[1],> 10 times that of Mock
B9,"reporter activity (SRE reporter, firefly/Renilla luciferase, HEK293 cells, relative to Mock); PEG- sample, 2500-fold diluted",[1],> 10 times that of Mock
B10,"reporter activity (SRE reporter, firefly/Renilla luciferase, HEK293 cells, relative to Mock); PEG+ sample, 2500-fold diluted",[1],> 10 times that of Mock
B11,"reporter activity (PathHunter eXpress EpoR-JAK2 Functional Assay, chemiluminescence relative to Mock); PEG- sample, 1000-fold diluted",[2],> 1.5 times that of Mock
B12,"reporter activity (PathHunter eXpress EpoR-JAK2 Functional Assay, chemiluminescence relative to Mock); PEG+ sample, 1000-fold diluted",[2],> 1.5 times that of Mock
B13,"reporter activity (PathHunter eXpress EpoR-JAK2 Functional Assay, chemiluminescence relative to Mock); PEG+ sample (WT treated with m-dPEG24-DBCO, not modified), 1000-fold diluted",[2],> 1.5 times that of Mock
same,"reporter activity (PathHunter eXpress EpoR-JAK2 Functional Assay, chemiluminescence relative to Mock); PEG- sample, 1000-fold diluted",[2],> 1.5 times that of Mock
B14,"reporter activity (SRE reporter, firefly/Renilla luciferase, HEK293 cells, relative to Mock); PEG+ sample (WT treated with m-dPEG24-DBCO, not modified), 2500-fold diluted",[1],> 10 times that of Mock
same,"reporter activity (SRE reporter, firefly/Renilla luciferase, HEK293 cells, relative to Mock); PEG- sample, 2500-fold diluted",[1],> 10 times that of Mock
